Reference: patent publication US20110243941A1

Target: wild type CH1-CH3 Fc fusion protein displayed on yeast (pYD-CH1) (human)
Assay: FACS titration 1.4 to 0.0006 µM on yeast-displayed Fc, MFI, nonlinear regression

Kd: 6 nM
Substance: soluble FcγRIIIA tetrameric complex (biotinylated FcγRIIIA-AVITAG on streptavidin-phycoerythrin) (from UniProt P08637 17-203) (receptor)
